Columns and labels:
HeLa Kyoto [1] = experiment: solubility in G1/S (NP-40 vs SDS abundance) (log2 ratio); higher = more soluble; conditions: cell cycle stage: G1/S
HeLa Kyoto [2] = experiment: solubility change mitosis vs G1/S (difference of NP-40 vs SDS log2 ratios) (log2 ratio difference); higher = more soluble in mitosis
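For solubility change mitosis vs G1/S (difference of NP-40 vs SDS log2 ratios) in this document: synchronized HeLa Kyoto cells (double thymidine block for G1/S, nocodazole release for mitosis), protein amounts in NP-40 versus SDS lysates quantified by mass spectrometry, three biological replicates.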
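For solubility in G1/S (NP-40 vs SDS abundance) in this document: HeLa Kyoto cells arrested at G1/S by double thymidine block, proteins quantified by TMT10plex mass spectrometry in mild NP-40 versus SDS extracts, three biological replicates.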

Row | Substance | solubility in G1/S (log2) (HeLa Kyoto [1]) | solubility change mitosis (log2) (HeLa Kyoto [2])
1 | MSELKDCPLQFHDFKSVDHLKVCPRYTAVLARSEDDGIGIEELDTLQLELETLLSSASRRLRVLEAETQILTDWQDKKGDRRFLKLGRDHELGAPPKHGKPKKQKLEGKAGHGPGPGPGRPKSKNLQPKIQEYEFTDDPIDVPRIPKNDAPNRFWASVEPYCADITSEEVRTLEELLKPPEDEAEHYKIPPLGKHYSQRWAQEDLLEEQKDGARAAAVADKKKGLMGPLTELDTKDVDALLKKSEAQHEQPEDGCPFGALTQRLLQALVEENIISPMEDSPIPDMSGKESGADGASTSPRNQNKPFSVPHTKSLESRIKEELIAQGLLESEDRPAEDSEDEVLAELRKRQAELKALSAHNRTKKHDLLRLAKEEVSRQELRQRVRMADNEVMDAFRKIMAARQKKRTPTKKEKDQAWKTLKERESILKLLDG [TADA3] | 0.646 | 0.286
2 | MQGSTRRMGVMTDVHRRFLQLLMTHGVLEEWDVKRLQTHCYKVHDRNATVDKLEDFINNINSVLESLYIEIKRGVTEDDGRPIYALVNLATTSISKMATDFAENELDLFRKALELIIDSETGFASSTNILNLVDQLKGKKMRKKEAEQVLQKFVQNKWLIEKEGEFTLHGRAILEMEQYIRETYPDAVKICNICHSLLIQGQSCETCGIRMHLPCVAKYFQSNAEPRCPHCNDYWPHEIPKVFDPEKERESGVLKSNKKSLRSRQH [NSMCE1] | 0.0262 | -0.0633
3 | MAELYVKPGNKERGWNDPPQFSYGLQTQAGGPRRSLLTKRVAAPQDGSPRVPASETSPGPPPMGPPPPSSKAPRSPPVGSGPASGVEPTSFPVESEAVMEDVLRPLEQALEDCRGHTRKQVCDDISRRLALLQEQWAGGKLSIPVKKRMALLVQELSSHRWDAADDIHRSLMVDHVTEVSQWMVGVKRLIAEKRSLFSEEAANEEKSAATAEKNHTIPGFQQAS [SRA1] | 0.0612 | 0.9
4 | MQLEIQVALNFIISYLYNKLPRRRVNIFGEELERLLKKKYEGHWYPEKPYKGSGFRCIHIGEKVDPVIEQASKESGLDIDDVRGNLPQDLSVWIDPFEVSYQIGEKGPVKVLYVDDNNENGCELDKEIKNSFNPEAQVFMPISDPASSVSSSPSPPFGHSAAVSPTFMPRSTQPLTFTTATFAATKFGSTKMKNSGRSNKVARTSPINLGLNVNDLLKQKAISSSMHSLYGLGLGSQQQPQQQQQPAQPPPPPPPPQQQQQQKTSALSPNAKEFIFPNMQGQGSSTNGMFPGDSPLNLSPLQYSNAFDVFAAYGGLNEKSFVDGLNFSLNNMQYSNQQFQPVMAN [TOB1] | 0.14 | -0.114
5 | MNSRQAWRLFLSQGRGDRWVSRPRGHFSPALRREFFTTTTKEGYDRRPVDITPLEQRKLTFDTHALVQDLETHGFDKTQAETIVSALTALSNVSLDTIYKEMVTQAQQEITVQQLMAHLDAIRKDMVILEKSEFANLRAENEKMKIELDQVKQQLMHETSRIRADNKLDINLERSRVTDMFTDQEKQLMETTTEFTKKDTQTKSIISETSNKIDAEIASLKTLMESNKLETIRYLAASVFTCLAIALGFYRFWK [CCDC90B] | 0.144 | 0.249
6 | MPYVDRQNRICGFLDIEEHENSGKFLRRYFILDTQANCLLWYMDNPQNLAMGAGAVGALQLTYISKVSIATPKQKPKTPFCFVINALSQRYFLQANDQKDMKDWVEALNQASKITVPKGGGLPMTTEVLKSLAAPPALEKKPQVAYKTEIIGGVVVHTPISQNGGDGQEGSEPGSHTILRRSQSYIPTSGCRASTGPPLIKSGYCVKQGNVRKSWKRRFFALDDFTICYFKCEQDREPLRTIFLKDVLKTHECLVKSGDLLMRDNLFEIITSSRTFYVQADSPEDMHSWIKEIGAAVQALKCHPRETSFSRSISLTRPGSSSLSSGPNSILCRGRPPLEEKKALCKAPSVASSWQPWTPVPQAGEKLLPPGDTSEDSLFTPRPGEGSAPGVLPSSRIRHRSEPQHPKEKPFMFNLDDENIRTSDV [PLEKHA2] | 0.121 | -0.19
7 | MPRCPAGAMDEGPVDLRTRPKAAGLPGAALPLRKRPLRAPSPEPAAPRGAAGLVVPLDPLRGGCDLPAVPGPPHGLARPEALYYPGALLPLYPTRAMGSPFPLVNLPTPLYPMMCPMEHPLSADIAMATRADEDGDTPLHIAVVQGNLPAVHRLVNLFQQGGRELDIYNNLRQTPLHLAVITTLPSVVRLLVTAGASPMALDRHGQTAAHLACEHRSPTCLRALLDSAAPGTLDLEARNYDGLTALHVAVNTECQETVQLLLERGADIDAVDIKSGRSPLIHAVENNSLSMVQLLLQHGANVNAQMYSGSSALHSASGRGLLPLVRTLVRSGADSSLKNCHNDTPLMVARSRRVIDILRGKATRPASTSQPDPSPDRSANTSPESSSRLSSNGLLSASPSSSPSQSPPRDPPGFPMAPPNFFLPSPSPPAFLPFAGVLRGPGRPVPPSPAPGGS [BCL3] | 0.0652 | -0.154
8 | CHD7 | -0.18 | 0.0296
9 | MSKRLSPQLQHNITEDAYCETHLEPTRLFCDVDQITLCSKCFQSQEHKHHMVCGIQEAAENYRKLFQEILNTSREKLEAAKSILTDEQERMAMIQEEEQNFKKMIESEYSMRLRLLNEECEQNLQRQQECISDLNLRETLLNQAIKLATELEEMFQEMLQRLGRVGRENMEKLKESEARASEQVRSLLKLIVELEKKCGEGTLALLKNAKYSLERSKSLLLEHLEPAHITDLSLCHIRGLSSMFRVLQRHLTLDPETAHPCLALSEDLRTMRLRHGQQDGAGNPERLDFSAMVLAAESFTSGRHYWEVDVEKATRWQVGIYHGSADAKGSTARASGEKVLLTGSVMGTEWTLWVFPPLKRLFLEKKLDTVGVFLDCEHGQISFYNVTEMSLIYNFSHCAFQGALRPVFSLCIPNGDTSPDSLTILQHGPSCDATVSP [TRIML2] | 0.0183 | -0.17
10 | MPAGGRAGSLKDPDVAELFFKDDPEKLFSDLREIGHGSFGAVYFARDVRNSEVVAIKKMSYSGKQSNEKWQDIIKEVRFLQKLRHPNTIQYRGCYLREHTAWLVMEYCLGSASDLLEVHKKPLQEVEIAAVTHGALQGLAYLHSHNMIHRDVKAGNILLSEPGLVKLGDFGSASIMAPANSFVGTPYWMAPEVILAMDEGQYDGKVDVWSLGITCIELAERKPPLFNMNAMSALYHIAQNESPVLQSGHWSEYFRNFVDSCLQKIPQDRPTSEVLLKHRFVLRERPPTVIMDLIQRTKDAVRELDNLQYRKMKKILFQEAPNGPGAEAPEEEEEAEPYMHRAGTLTSLESSHSVPSMSISASSQSSSVNSLADASDNEEEEEEEEEEEEEEEGPEAREMAMMQEGEHTVTSHSSIIHRLPGSDNLYDDPYQPEITPSPLQPPAAPAPTSTTSSARRRAYCRNRDHFATIRTASLVSRQIQEHEQDSALREQLSGYKRMRRQHQKQLLALESRLRGEREEHSARLQRELEAQRAGFGAEAEKLARRHQAIGEKEARAAQAEERKFQQHILGQQKKELAALLEAQKRTYKLRKEQLKEELQENPSTPKREKAEWLLRQKEQLQQCQAEEEAGLLRRQRQYFELQCRQYKRKMLLARHSLDQDLLREDLNKKQTQKDLECALLLRQHEATRELELRQLQAVQRTRAELTRLQHQTELGNQLEYNKRREQELRQKHAAQVRQQPKSLKVRAGQRPPGLPLPIPGALGPPNTGTPIEQQPCSPGQEAVLDQRMLGEEEEAVGERRILGKEGATLEPKQQRILGEESGAPSPSPQKHGSLVDEEVWGLPEEIEELRVPSLVPQERSIVGQEEAGTWSLWGKEDESLLDEEFELGWVQGPALTPVPEEEEEEEEGAPIGTPRDPGDGCPSPDIPPEPPPTHLRPCPASQLPGLLSHGLLAGLSFAVGSSSGLLPLLLLLLLPLLAAQGGGGLQAALLALEVGLVGLGASYLLLCTALHLPSSLFLLLAQGTALGAVLGLSWRRGLMGVPLGLGAAWLLAWPGLALPLVAMAAGGRWVRQQGPRVRRGISRLWLRVLLRLSPMAFRALQGCGAVGDRGLFALYPKTNKDGFRSRLPVPGPRRRNPRTTQHPLALLARVWVLCKGWNWRLARASQGLASHLPPWAIHTLASWGLLRGERPTRIPRLLPRSQRQLGPPASRQPLPGTLAGRRSRTRQSRALPPWR [TAOK2] | -0.239 | -0.0236
11 | MTPVRMQHSLAGQTYAVPLIQPDLRREEAVQQMADALQYLQKVSGDIFSRISQQVEQSRSQVQAIGEKVSLAQAKIEKIKGSKKAIKVFSSAKYPAPERLQEYGSIFTGAQDPGLQRRPRHRIQSKHRPLDERALQEKLKDFPVCVSTKPEPEDDAEEGLGGLPSNISSVSSLLLFNTTENLYKKYVFLDPLAGAVTKTHVMLGAETEEKLFDAPLSISKREQLEQQVPENYFYVPDLGQVPEIDVPSYLPDLPGIANDLMYIADLGPGIAPSAPGTIPELPTFHTEVAEPLKVDLQDGVLTPPPPPPPPPPAPEVLASAPPLPPSTAAPVGQGARQDDSSSSASPSVQGAPREVVDPSGGRATLLESIRQAGGIGKAKLRSMKERKLEKKKQKEQEQVRATSQGGHLMSDLFNKLVMRRKGISGKGPGAGEGPGGAFARVSDSIPPLPPPQQPQAEEDEDDWES [WASH2P] | 0.453 | 0.0339
12 | MARLTKRRQADTKAIQHLWAAIEIIRNQKQIANIDRITKYMSRVHGMHPKETTRQLSLAVKDGLIVETLTVGCKGSKAGIEQEGYWLPGDEIDWETENHDWYCFECHLPGEVLICDLCFRVYHSKCLSDEFRLRDSSSPWQCPVCRSIKKKNTNKQEMGTYLRFIVSRMKERAIDLNKKGKDNKHPMYRRLVHSAVDVPTIQEKVNEGKYRSYEEFKADAQLLLHNTVIFYGADSEQADIARMLYKDTCHELDELQLCKNCFYLSNARPDNWFCYPCIPNHELVWAKMKGFGFWPAKVMQKEDNQVDVRFFGHHHQRAWIPSENIQDITVNIHRLHVKRSMGWKKACDELELHQRFLREGRFWKSKNEDRGEEEAESSISSTSNEQLKVTQEPRAKKGRRNQSVEPKKEEPEPETEAVSSSQEIPTMPQPIEKVSVSTQTKKLSASSPRMLHRSTQTTNDGVCQSMCHDKYTKIFNDFKDRMKSDHKRETERVVREALEKLRSEMEEEKRQAVNKAVANMQGEMDRKCKQVKEKCKEEFVEEIKKLATQHKQLISQTKKKQWCYNCEEEAMYHCCWNTSYCSIKCQQEHWHAEHKRTCRRKR [ZMYND11] | -2.1 | 0.83

Source: the supplement of paper PMC5998384
